Test results from US20120165267A1 (Genentech, published 2012).
Numbering of substitutions follows the chain as printed. Names may count otherwise.

T1: DcR2-IgG (UniProt Q9UBN6 56-211)
T1 sequence (Q9UBN6 whole entry, species assumed, looked up): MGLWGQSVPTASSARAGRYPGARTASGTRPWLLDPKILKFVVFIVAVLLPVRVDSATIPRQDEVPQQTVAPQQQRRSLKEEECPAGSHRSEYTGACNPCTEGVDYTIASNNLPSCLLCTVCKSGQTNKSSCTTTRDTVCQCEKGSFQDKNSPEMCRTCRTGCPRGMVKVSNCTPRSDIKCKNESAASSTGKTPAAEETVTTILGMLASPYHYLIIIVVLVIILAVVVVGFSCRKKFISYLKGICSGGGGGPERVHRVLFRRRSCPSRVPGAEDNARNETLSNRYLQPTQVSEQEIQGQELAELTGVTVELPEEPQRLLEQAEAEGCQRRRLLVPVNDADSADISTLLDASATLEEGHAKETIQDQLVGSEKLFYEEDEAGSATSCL

T2: DcR1 receptor-IgG (UniProt O14798 26-236)
T2 construct: Captured as receptor-IgG on Protein A beads; construct not described
T2 sequence (O14798 whole entry, species assumed, looked up): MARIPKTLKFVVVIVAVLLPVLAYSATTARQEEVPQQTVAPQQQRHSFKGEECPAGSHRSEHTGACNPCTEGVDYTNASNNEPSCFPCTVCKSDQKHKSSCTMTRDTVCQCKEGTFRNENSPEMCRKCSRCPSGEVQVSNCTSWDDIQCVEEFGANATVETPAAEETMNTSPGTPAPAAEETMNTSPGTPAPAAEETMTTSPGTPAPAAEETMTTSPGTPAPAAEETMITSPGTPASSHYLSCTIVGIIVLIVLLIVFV

B1: Flag.Apo2L.DR4-9 (ligand)
chain: VRERGPQRVAAHITGTRGRSNTLSSPNSKNEKALGRKINSWESSRSGHSFLSNLHLRNGELVIHEKGFYYIYSQTAFRFSEEIKERTRNDKQMVQYIYKWTDYPDPILLMKSARNSCWSKDAEYGLYSIYQGGIFELKENDRIFVSVTNEHLIDMDHEASFFGAFLVG
notes: not shown: N-terminal flag tag from pFLAG-MAC
B2: Flag.Apo2L.DR5-1 (ligand)
chain: B1 chain with R78K, S80K, R86N, R88K, W100Y, D102S, H151A
notes: as for B1
B3: Flag.Apo2L.DR5-8 (ligand)
chain: B1 chain with A76Q, R78K, S80R, R86N, R88K, W100Y, D102S, H151R, I153L, D154Q
notes: also called Flag-Apo21.DR5-8; not shown: N-terminal flag tag from pFLAG-MAC
B4: Flag.Apo2L.DR5-2 (ligand)
chain: B1 chain with R78K, S80K, R86N, R88K, W100Y, D102S
notes: as for B1
B5: Flag.Apo2L.DR4-8 (ligand)
chain: B1 chain with R86V
notes: as for B1
B6: Flag.Apo2L.DR5-21 (ligand)
chain: B1 chain with R78K, S80K, R86N, R88K, W100Y, D102S, H151D, I153L, D154N, D156E
notes: as for B1
B7: Flag.Apo2L.DR5-23 (ligand)
chain: B1 chain with R78K, S80R, R86N, R88K, W100Y, D102S, H151S, I153L, D156E
notes: as for B1
B8: DR4-selective phage clone 8 (ligand)
chain: SEETISTVQEKQQNISPLVRERGPQRVAAHITGTRGRSNTLSSPNSKNEKALGRKINSWESSRSGHSFLSNLHLRNGELVIHEKGFYYIYSQTAFRFSEEIKEVTRNDKQMVQYIYKWTDYPDPILLMKSARNSCWSKDAEYGLYSIYQGGIFELKENDRIFVSVTNEHLIDMDHEASFFGAFLVG
notes: also called DR4-8
B9: DR4-selective phage clone 9 (ligand)
chain: B8 chain with V104R
notes: also called DR4-9
B10: DR4-selective phage clone 11 (ligand)
chain: B8 chain with V104G, R106S
notes: also called DR4-11
B11: DR4-selective phage clone 13 (ligand)
chain: B8 chain with S98K, V104G, R106G
notes: also called DR4-13
B12: Apo2L.DR5-8 (ligand)
chain: B1 chain with A76Q, R78K, S80R, R86N, R88K, W100Y, D102S, H151R, I153L, D154Q
notes: also called Apo2L/TRAIL.DR5-8
B13: Apo2L.DR5-8B (ligand)
chain: B1 chain with A76Q, R78K, S80R, R86N, R88K, W100Y, D102S
notes: Subcloned into pAPOK5.0 (114-281 form)
B14: Apo2L.DR5-8C (ligand)
chain: B1 chain with A76Q, R78K, S80R, R86N, R88K, W100Y, D102S, I153L
notes: as for B13
B15: Apo2L/TRAIL(114-281) mutant DR5-11 (ligand)
chain: B1 chain with S80K, R86N, R88K, W100Y, D102S, H151G, I153V, D156S
notes: Untagged, from pAPOK5.0
B16: Apo2L/TRAIL(114-281) mutant DR5-21 (ligand)
chain: B1 chain with R78K, S80K, R86N, R88K, W100Y, D102S, H151D, I153L, D154N, D156E
notes: Untagged, from pAPOK5.0; h-0007 lists D267Q
B17: Apo2L/TRAIL(114-281) mutant DR5-4 (ligand)
chain: B1 chain with S80R, R86N, R88K, W100Y, D102S, H151Q, I153L, D156N
notes: Untagged, from pAPOK5.0
B18: Apo2L/TRAIL(114-281) mutant DR5-23 (ligand)
chain: B1 chain with R78K, S80R, R86N, R88K, W100Y, D102S, H151S, I153L, D156E
notes: Untagged, from pAPOK5.0
B19: Apo2L/TRAIL(114-281) mutant DR5-5 (ligand)
chain: B1 chain with A76S, S80T, R86N, R88K, W100Y, D102S, H151G, I153L, D156N
notes: Untagged, from pAPOK5.0

Target: T3, DR5-IgG (human, UniProt O14763 56-184)
T3 construct: also called Apo-2-IgG; not shown: IgG part; prepared as in WO98/51793, not described here
Experiment: BIAcore; against Flag.Apo2L.WT
Protocol: (§1) Briefly, dissociation constants (Kd) for binding of Apo-2L variants (see Tables II and III) to immobilized receptor immunoadhesins were determined from surface plasmon resonance (SPR) measurements on a Pharmacia BIAcore 3000. DR5-IgG (also referred to as Apo-2-IgG) and DcR2-IgG receptor immunoadhesins were prepared as described in WO98/51793 published Nov. 19, 1998 and WO99/10484 published Mar. 9, 1999, respectively. DR4-IgG was prepared as follows. […] Sensorgrams were recorded for Apo-2L binding at concentrations ranging from 15.6 nM to 500 nM in 2-fold increments. The kinetics constants were determined by non-linear regression analysis and used to calculate the binding constants.

**Q.** How did the “DR5 KD (mut/wt)” value turn out when B1 was run?
**A.** 1200 ratio

**Q.** Which “DR5 KD (mut/wt)” value does the source give for B2 here?
**A.** 2.2 ratio

**Q.** With B3 as the binder, how does the “DR5 KD (mut/wt)” value read?
**A.** 0.8 ratio

**Q.** How did the “DR5 KD (mut/wt)” value turn out when B4 was run?
**A.** 1.9 ratio

**Q.** Which “DR5 KD (mut/wt)” value does the source give for B5 here?
**A.** 1100 ratio

**Q.** With B6 as the binder, how does the “DR5 KD (mut/wt)” value read?
**A.** 1 ratio

**Q.** For B7, which “DR5 KD (mut/wt)” value is on record?
**A.** 2.4 ratio

Target: T3, DR5-IgG
Experiment: spot ELISA, phage on coated protein

**Q.** Does B8 bind?
**A.** no binding

**Q.** Does B9 bind?
**A.** no binding

Target: T4, BSA (UniProt P02769 25-607)
T4 construct: Control protein of the spot ELISA
Experiment: spot ELISA, phage on coated protein

**Q.** Does B10 bind?
**A.** no binding

**Q.** Does B8 bind?
**A.** no binding

**Q.** Does B11 bind?
**A.** no binding

**Q.** Does B9 bind?
**A.** no binding

Target: T3, DR5-IgG
Experiment: BIAcore, immobilized receptor-IgG

**Q.** For B12, which “DR5-binding (ratio relative to wild-type Apo2L)” value is on record?
**A.** 0.6 ratio

**Q.** With B13 as the binder, how does the “DR5-binding (ratio relative to wild-type Apo2L)” value read?
**A.** 0.6 ratio

**Q.** With B14 as the binder, how does the “DR5-binding (ratio relative to wild-type Apo2L)” value read?
**A.** 0.6 ratio

Target: T3, DR5-IgG
Experiment: BIAcore, immobilized receptor-IgG; against wild-type Apo2L/TRAIL(114-281)
Protocol: as §1
KD values determined by BIAcore analysis are reported relative to the value calculated for the wild-type protein. Apoptosis-induction is evaluated from the ED₅₀ value (ng/mL) in the presence and absence of 2 μg/mL M2 antibody (Sigma).

**Q.** For B15, which “KD ratio (mutant/wt)” value is on record?
**A.** 2.2 ratio

**Q.** Which “KD ratio (mutant/wt)” value does the source give for B16 here?
**A.** 1.2 ratio

**Q.** How did the “KD ratio (mutant/wt)” value turn out when B17 was run?
**A.** 1.3 ratio

**Q.** Which “KD ratio (mutant/wt)” value does the source give for B18 here?
**A.** 2.4 ratio

**Q.** With B19 as the binder, how does the “KD ratio (mutant/wt)” value read?
**A.** 2.5 ratio

Target: T3, DR5-IgG
Experiment: AlphaQuest (CARB-AQ) displacement of biotinylated Apo2L/TRAIL from receptor-IgG; against Flag-Apo2L.WT

**Q.** Which “IC50 ratio (mutant/wt)” value does the source give for B2 here?
**A.** 2.4 ratio

**Q.** With B3 as the binder, how does the “IC50 ratio (mutant/wt)” value read?
**A.** 0.7 ratio

**Q.** For B4, which “IC50 ratio (mutant/wt)” value is on record?
**A.** 2.8 ratio

**Q.** For B6, which “IC50 ratio (mutant/wt)” value is on record?
**A.** 1.9 ratio

**Q.** Which “IC50 ratio (mutant/wt)” value does the source give for B7 here?
**A.** 2.3 ratio

Target: T1, DcR2-IgG
Experiment: as above

**Q.** B1 was tested. Which “IC50 ratio (mutant/wt)” value did it give?
**A.** 18 ratio

**Q.** Which “IC50 ratio (mutant/wt)” value does the source give for B2 here?
**A.** 32 ratio

**Q.** Which “IC50 ratio (mutant/wt)” value does the source give for B4 here?
**A.** 5 ratio

**Q.** Which “IC50 ratio (mutant/wt)” value does the source give for B5 here?
**A.** 15 ratio

**Q.** How did the “IC50 ratio (mutant/wt)” value turn out when B6 was run?
**A.** 9.4 ratio

**Q.** With B7 as the binder, how does the “IC50 ratio (mutant/wt)” value read?
**A.** 24 ratio

Target: T2, DcR1 receptor-IgG
Experiment: as above

**Q.** With B1 as the binder, how does the “IC50 ratio (mutant/wt)” value read?
**A.** 4 ratio

**Q.** B5 was tested. Which “IC50 ratio (mutant/wt)” value did it give?
**A.** 5.5 ratio

Target: T3, DR5-IgG
Experiment: competition phage ELISA: phage clone on wells coated with DR4-IgG, competed by rising soluble DR5-IgG, bound phage detected with anti-M13 antibody-HRP, A450
Protocol: Relative binding strengths for 4 of the clones from the DR4 library were determined by competition phage ELISA (FIGS. 15 and 16). In this assay, a fixed concentration of phage is added to wells coated with receptor-IgG in the presence of an increasing concentration of receptor-IgG in solution. After incubation to allow binding and washing to remove unbound phage, the bound phage is determined with the HRP-coupled, anti-M13 antibody (Pharmacia). Analysis of the ELISA signal as a function of receptor-IgG concentration in solution by using a 4-parameter fit yields the IC50 value. Since the IC50 value will vary with phage concentration, the phage clones were first titered to determine the dilution giving equal signal strength for the 4 clones.

**Q.** Does B10 bind?
**A.** no binding (tested: 1000 nM)

**Q.** Does B11 bind?
**A.** no binding (tested: 1000 nM)
